# Patent publication US20170340735A1 (published 2017)
# T1: human PVRL4-His (human, UniProt Q96NY8 32-349)
# T1 construct: also called Nectin-4; not shown: His tag
# T1 sequence (looked up): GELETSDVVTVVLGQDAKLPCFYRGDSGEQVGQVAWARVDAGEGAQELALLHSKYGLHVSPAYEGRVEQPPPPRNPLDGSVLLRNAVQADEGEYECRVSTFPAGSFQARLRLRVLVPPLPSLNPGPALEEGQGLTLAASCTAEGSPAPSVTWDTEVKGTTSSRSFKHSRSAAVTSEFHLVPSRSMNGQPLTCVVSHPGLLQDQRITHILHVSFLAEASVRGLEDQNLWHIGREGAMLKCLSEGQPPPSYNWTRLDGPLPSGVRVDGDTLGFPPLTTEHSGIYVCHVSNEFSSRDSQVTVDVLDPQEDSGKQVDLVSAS
# T2: human TIGIT on the cell surface (human, UniProt Q495A1 22-244)
# T2 construct: Expressed on engineered Jurkat cells or naturally on human primary CD8+ T cells (the cells are named under assay); also called Human TIGIT Jurkat; human TIGIT expressing Jurkat cells
# T2 sequence: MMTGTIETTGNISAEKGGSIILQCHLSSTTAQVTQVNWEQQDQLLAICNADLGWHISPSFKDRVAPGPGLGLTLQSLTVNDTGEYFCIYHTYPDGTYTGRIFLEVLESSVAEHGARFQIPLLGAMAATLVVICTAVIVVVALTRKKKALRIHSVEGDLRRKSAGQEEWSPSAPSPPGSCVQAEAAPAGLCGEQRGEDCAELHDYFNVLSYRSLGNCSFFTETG
# T3: recombinant monomeric human TIGIT-His (human, UniProt Q495A1 22-141)
# T3 construct: also called hTIGIT; not shown: His tag
# T3 sequence: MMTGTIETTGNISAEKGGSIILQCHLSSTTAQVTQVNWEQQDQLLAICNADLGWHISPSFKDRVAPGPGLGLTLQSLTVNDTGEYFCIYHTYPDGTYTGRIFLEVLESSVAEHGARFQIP
# Key:
# [1] = target: T1, human PVRL4-His; assay: BLI, antibody on AHC sensor, human PVRL4-His in solution
# Method: The BLI analysis was performed at 30° C. using 1× kinetics buffer as assay buffer. AHC sensors were first presoaked in assay buffer for greater than 5 minutes. Antibody (5 μg/mL) was captured on the sensor for 300 seconds. Sensors were then dipped in assay buffer for 120 seconds to establish a baseline before measuring binding to human PVRL4-His protein. Sensors were then dipped into human PVRL4-His (200 nM in assay buffer) for 200 seconds to measure association. Dissociation of PVRL4 was then measured by dipping sensors into assay buffer for 200 seconds. Results were analyzed using Octet® Data Analysis Software Version 8.2.0.7.
# [2] = target: T2, human TIGIT on the cell surface; assay: flow cytometry, antibody titrated against labeled PVR-Fc binding to human TIGIT Jurkat cells
# Method: (§1) Quantitative ligand blocking studies were conducted by using a cell surface TIGIT binding assay.
# [3] = target: T2, human TIGIT on the cell surface; assay: cell-based or functional assay
# [4] = target: T4, recombinant monomeric cynomolgus monkey TIGIT-His (cynomolgus monkey); assay: BLI (ForteBio), IgG on AHQ sensor, 100 nM monomeric antigen, 1:1 model
# T4 construct: also called Cyno TIGIT His; cTIGIT; not shown: His tag
# Method: (§2) Quantitative binding of antibodies to recombinant monomeric human, mouse (SEQ ID NO: 3), cynomolgus monkey TIGIT was measured using biolayer interferometry (BLI) with a FORTEBIO®. […] FORTEBIO affinity measurements were performed by loading IgGs on-line onto AHQ sensors. Sensors were equilibrated off-line in assay buffer for 30 min and then monitored on-line for 60 seconds for baseline establishment. Sensors with loaded IgGs were exposed to a single concentration of antigen (100 nM) for 3 minutes. Afterwards they were transferred to assay buffer for 3 minutes for off-rate measurement. Kinetics were analyzed using the 1:1 binding model.
# [5] = target: T3, recombinant monomeric human TIGIT-His; assay: as above
# Method: as §2
# [6] = target: T4, recombinant monomeric cynomolgus monkey …; assay: MSD-SET solution equilibrium titration, monomeric antigen
# Method: (§3) See Estep et al., supra, incorporated by reference in its entirety. Briefly, solution equilibrium titrations (SET) were performed in PBS+0.1% IgG-Free BSA (PBSF) with antigen (TIGIT monomer) held constant at 10-100 pM and incubated with 3- to 5-fold serial dilutions of Fab or mAbs starting at 10 pM-10 nM. Antibodies (20 nM in PBS) were coated onto standard bind MSD-ECL plates overnight at 4° C. or at room temperature for 30 min. Plates were then blocked by BSA for 30 min with shaking at 700 rpm, followed by three washes with wash buffer (PBSF+0.05% Tween 20). SET samples were applied and incubated on the plates for 150s with shaking at 700 rpm followed by one wash. Antigen captured on a plate was detected with 250 ng/mL sulfotag-labeled streptavidin in PBSF by incubation on the plate for 3 min. The plates were washed three times with wash buffer and then read on the MSD Sector Imager 2400 instrument using 1× Read Buffer T with surfactant. The percent free antigen was plotted as a function of titrated antibody in Prism and fit to a quadratic equation to extract the KD. To improve throughput, liquid handling robots were used throughout MSD-SET experiments, including SET sample preparation.
# [7] = target: T3, recombinant monomeric human TIGIT-His; assay: as above
# Method: as §3
# [8] = target: T2, human TIGIT on the cell surface; assay: flow cytometry, antibody titrated against labeled PVRL2-Fc binding to human TIGIT Jurkat cells
# Method: as §1
# [9] = target: T3, recombinant monomeric human TIGIT-His; assay: BLI (Octet QKe), antibody on AHC sensor, several concentrations of human TIGIT-His, 1:1 global fit, average
# Method: A strategy of capturing anti-TIGIT antibodies on sensors following association/dissociation of monomeric TIGIT proteins was used to avoid avidity effects in the assay. The BLI analysis was performed at 29° C. using 1× kinetics buffer (ForteBio) as assay buffer. Anti-human IgG Fc capture (AHC) biosensors (ForteBio) were first presoaked in assay buffer for over five minutes. Anti-TIGIT antibody (5 μg/mL) was captured on the sensor for 300 seconds. Sensors were then dipped in assay buffer for 120 seconds to establish a baseline before measuring binding to each TIGIT protein. […] Dissociation of TIGIT was measured by dipping the sensors into assay buffer for 600, 1200, or 1800 seconds, depending on the experiment (600 seconds was only used for mouse TIGIT-His). Agitation at all steps was 1000 rpm.
# Kinetic parameters were generated with Octet® Data Analysis Software Version 8.2.0.7 using reference subtraction, dissociation based inter-step correction, 1-to-1 binding model, and global fit (Rₘₐₓ unlinked by sensor).
# T4 sequence (chain, as listed by the source limits assumed): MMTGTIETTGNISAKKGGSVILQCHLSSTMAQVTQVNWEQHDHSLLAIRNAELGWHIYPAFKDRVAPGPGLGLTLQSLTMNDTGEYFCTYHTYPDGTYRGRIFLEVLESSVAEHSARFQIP
Binder,binding result [1],IC50 [2],"Average EC50, IL-2 production, human TIGIT Jurkat/anti-CD3 HT-1080 co-culture assay [3]",Kd [4],Kd [5],Kd [6],Kd [7],IC50 [8],Kd [9],koff [9],kon [9]
"MAB1-IgG4 (antibody, V domains shown) VH: QLQLQESGPGLVKPSETLSLTCTVSGGSITSSSYYWGWIRQPPGKGLEWIGSIYYSGATFYNPSLKSRVTISVDTSKNQFSLKLSSVTAADTAVYYCARDANYYGSAWAFDPWGQGTLVTVSS VL: EIVLTQSPATLSLSPGERATLSCRASQSVSSYLAWYQQKPGQAPRLLIYDASNRATGIPARFSGSGSGTDFTLTISSLEPEDFAVYYCQQHFNLPTFGGGTKVEIKR",no binding (tested: 200 nM),2.2 nM,0.22 nM,2.64 nM,0.524 nM,0.32 nM,0.054 nM,1.4 nM,,,
"MAB2-IgG4 (antibody, V domains shown) VH: QLQLQESGPGLVKPSETLSLTCTVSGGSISSSKYYWGWIRQPPGKGLEWIGSIYYSGSTFYNPSLKSRVTISVDTSKNQFSLKLSSVTAADTAVYYCARDANYYGSAWAFDPWGQGTLVTVSS VL: EIVLTQSPATLSLSPGERATLSCRASQSVSSYLAWYQQKPGQAPRLLIYDASNRATGIPARFSGSGSGTDFTLTISSLEPEDFAVYYCQQHFNLPTFGGGTKVEIKR",no binding (tested: 200 nM),2.3 nM,0.31 nM,1.57 nM,0.457 nM,0.23 nM,0.025 nM,1.3 nM,0.71 nM,0.00023 s⁻¹,320000 M⁻¹ s⁻¹
"MAB4-IgG4 (antibody, V domains shown) VH: QLQLQESGPGLVKPSETLSLTCTVSGGSISSTSHYWGWIRQPPGKGLEWIGSIYYSGSTFYNPSLKSRVTISVDTSKNQFSLKLSSVTAADTAVYYCARDANYYGGAWAFDPWGQGTLVTVSS VL: EIVLTQSPATLSLSPGERATLSCRASQSVSSYLAWYQQKPGQAPRLLIYDASNRATGIPARFSGSGSGTDFTLTISSLEPEDFAVYYCQQHFNLPTFGGGTKVEIKR",no binding (tested: 200 nM),1.9 nM,0.34 nM,0.369 nM,0.246 nM,0.015 nM,0.005 nM,1.6 nM,0.081 nM,6.3e-05 s⁻¹,700000 M⁻¹ s⁻¹
"MAB5-IgG4 (antibody, V domains shown) VH: QLQLQESGPGLVKPSETLSLTCTVSGGSISSTSHYWGWIRQPPGKGLEWIGSIYYSGSTFYNPSLKGRVTISVDTSKNQFSLKLSSVTAADTAVYYCARDANYYGSAWAFDPWGQGTLVTVSS VL: EIVLTQSPATLSLSPGERATLSCRASQSVSSYLAWYQQKPGQAPRLLIYDASNRATGIPARFSGSGSGTDFTLTISSLEPEDFAVYYCQQHFNLPTFGGGTKVEIKR",no binding (tested: 200 nM),1.7 nM,0.34 nM,0.898 nM,0.196 nM,0.046 nM,0.0049 nM,1.4 nM,0.19 nM,0.00014 s⁻¹,770000 M⁻¹ s⁻¹
